Test results as given in patent US20110033935.

Assays:
[1] = target: T1, variant of LAM2 in which glutamic acids at positions 8 and 61 were changed to lysine
T1 chain: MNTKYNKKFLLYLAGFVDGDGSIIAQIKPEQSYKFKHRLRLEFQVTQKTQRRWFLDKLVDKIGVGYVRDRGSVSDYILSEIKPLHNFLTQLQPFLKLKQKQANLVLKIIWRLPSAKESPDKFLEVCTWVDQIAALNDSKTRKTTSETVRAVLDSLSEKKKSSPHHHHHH

HGH2 = target: T2, HGH2
T2 chain: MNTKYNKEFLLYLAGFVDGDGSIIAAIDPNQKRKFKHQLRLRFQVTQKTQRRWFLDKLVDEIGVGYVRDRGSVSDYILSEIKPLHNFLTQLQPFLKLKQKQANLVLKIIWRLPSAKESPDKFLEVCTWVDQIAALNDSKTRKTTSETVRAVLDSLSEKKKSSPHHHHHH

GLA2 = target: T3, GLA2
T3 chain: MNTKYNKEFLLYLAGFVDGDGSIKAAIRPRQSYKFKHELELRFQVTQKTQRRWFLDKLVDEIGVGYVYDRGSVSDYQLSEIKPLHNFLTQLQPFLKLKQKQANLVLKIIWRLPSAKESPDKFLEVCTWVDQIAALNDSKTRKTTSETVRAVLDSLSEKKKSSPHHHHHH

CCR2 = target: T4, CCR2
T4 chain: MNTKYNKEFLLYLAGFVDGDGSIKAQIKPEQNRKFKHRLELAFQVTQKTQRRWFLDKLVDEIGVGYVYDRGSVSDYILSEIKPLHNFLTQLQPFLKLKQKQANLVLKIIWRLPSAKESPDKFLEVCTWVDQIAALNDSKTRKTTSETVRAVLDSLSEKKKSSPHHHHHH

ACH2 = target: T5, ACH2
T5 chain: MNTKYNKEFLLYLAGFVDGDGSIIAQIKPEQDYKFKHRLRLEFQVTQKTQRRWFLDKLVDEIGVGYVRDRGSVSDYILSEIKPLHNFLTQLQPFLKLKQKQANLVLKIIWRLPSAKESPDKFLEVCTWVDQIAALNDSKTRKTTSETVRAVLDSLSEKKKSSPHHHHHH

CF2 = target: T6, CF2
T6 chain: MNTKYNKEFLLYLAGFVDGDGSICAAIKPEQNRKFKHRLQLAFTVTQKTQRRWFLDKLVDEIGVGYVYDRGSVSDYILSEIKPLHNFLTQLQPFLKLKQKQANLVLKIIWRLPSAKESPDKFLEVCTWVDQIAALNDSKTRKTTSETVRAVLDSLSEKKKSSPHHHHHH

URA2 = target: T7, URA2
T7 chain: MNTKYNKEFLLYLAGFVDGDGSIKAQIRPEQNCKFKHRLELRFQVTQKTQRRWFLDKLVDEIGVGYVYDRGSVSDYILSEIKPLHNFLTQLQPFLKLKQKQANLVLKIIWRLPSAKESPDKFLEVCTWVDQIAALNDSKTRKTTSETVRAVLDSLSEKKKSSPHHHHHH

MYD2 = target: T8, MYD2
T8 chain: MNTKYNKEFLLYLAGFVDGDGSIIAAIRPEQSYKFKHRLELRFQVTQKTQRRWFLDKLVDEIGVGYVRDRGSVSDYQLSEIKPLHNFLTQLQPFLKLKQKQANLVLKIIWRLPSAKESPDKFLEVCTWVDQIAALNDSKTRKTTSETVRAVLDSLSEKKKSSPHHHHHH

[2] = target: T9, HGH2 (partner of CYP in the CYP/HGH2 heterodimer, the 44th table)
T9 chain: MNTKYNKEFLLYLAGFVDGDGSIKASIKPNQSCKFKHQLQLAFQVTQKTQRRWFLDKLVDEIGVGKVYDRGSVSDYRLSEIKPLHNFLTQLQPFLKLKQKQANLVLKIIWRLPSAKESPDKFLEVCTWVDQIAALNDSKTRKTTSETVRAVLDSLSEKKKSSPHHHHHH

MGC2 = target: T10, MGC2
T10 chain: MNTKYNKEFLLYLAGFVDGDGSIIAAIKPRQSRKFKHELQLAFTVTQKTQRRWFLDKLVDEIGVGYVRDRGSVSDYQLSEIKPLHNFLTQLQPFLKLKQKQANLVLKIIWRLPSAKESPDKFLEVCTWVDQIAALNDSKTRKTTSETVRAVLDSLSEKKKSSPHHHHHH

LAM2 = target: T11, LAM2
T11 chain: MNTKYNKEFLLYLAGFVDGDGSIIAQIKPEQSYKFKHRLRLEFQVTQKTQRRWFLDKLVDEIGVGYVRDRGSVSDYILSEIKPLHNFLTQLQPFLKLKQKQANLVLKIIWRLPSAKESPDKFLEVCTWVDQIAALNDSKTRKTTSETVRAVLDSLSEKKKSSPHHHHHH

BRP2 = target: T12, BRP2
T12 chain: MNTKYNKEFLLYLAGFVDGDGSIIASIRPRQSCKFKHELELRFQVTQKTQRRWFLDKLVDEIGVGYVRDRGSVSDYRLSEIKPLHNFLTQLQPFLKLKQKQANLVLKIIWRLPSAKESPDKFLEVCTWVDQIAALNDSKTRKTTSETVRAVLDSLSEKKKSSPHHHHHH

B1: variant of the LAM1 enzyme in which lysines at positions 7, 57, and 96 were changed to glutamic acids (protein)
chain: MNTKYNEEFLLYLAGFVDGDGSIIAQIDPRQCRKFKHELRLRFQVTQKTQRRWFLDELVDEIGVGYVRDRGSVSDYILSEIKPLHNFLTQLQPFLELKQKQANLVLKIIWRLPSAKESPDKFLEVCTWVDQIAALNDSKTRKTTSETVRAVLDSLSEKKKSSPHHHHHH
[1]
  cleavage of the LAM1/LAM2 hybrid DNA site against the two palindromic sites by co-expressed interface variants: the LAM1/LAM2 hybrid site was found to be cleaved preferentially over the two palindromic sites

B2: HGH1 (protein)
chain: MNTKYNKEFLLYLAGFVDGDGSIIAQIDPNQDCKFKHQLRLRFQVTQKTQRRWFLDKLVDEIGVGYVRDRGSVSDYILSEIKPLHNFLTQLQPFLKLKQKQANLVLKIIWRLPSAKESPDKFLEVCTWVDQIAALNDSKTRKTTSETVRAVLDSLSEKKKSSPHHHHHH
HGH2
  cleavage of a linearized DNA substrate with the intended non-palindromic recognition sequence (SEQ ID NO: 24, Human Growth Hormone promoter) by the 1:1 mixture: each rationally-designed meganuclease heterodimer cleaves its intended DNA site

B3: GLA1 (protein)
chain: MNTKYNKEFLLYLAGFVDGDGSIKAAIKPRQSYKFKHELSLAFQVTQKTQRRWFLDKLVDEIGVGYVYDRGSVSDYQLCEIKPLHNFLTQLQPFLKLKQKQANLVLKIIWRLPSAKESPDKFLEVCTWVDQIAALNDSKTRKTTSETVRAVLDSLSEKKKSSPHHHHHH
GLA2
  cleavage of a linearized DNA substrate with the intended non-palindromic recognition sequence (SEQ ID NO: 32, Arabidopsis GL2 gene) by the 1:1 mixture: each rationally-designed meganuclease heterodimer cleaves its intended DNA site

B4: CCR1 (protein)
chain: MNTKYNKEFLLYLAGFVDGDGSIKAQIRPRQNYKFKHELELEFQVTQKTQRRWFLDKLVDEIGVGYVYDRGSVSDYILSEIKPLHNFLTQLQPFLKLKQKQANLVLKIIWRLPSAKESPDKFLEVCTWVDQIAALNDSKTRKTTSETVRAVLDSLSEKKKSSPHHHHHH
CCR2
  cleavage of a linearized DNA substrate with the intended non-palindromic recognition sequence (SEQ ID NO: 26, human CCR5 gene) by the 1:1 mixture: each rationally-designed meganuclease heterodimer cleaves its intended DNA site

B5: ACH1 (protein)
chain: MNTKYNKEFLLYLAGFVDGDGSIIAAIDPEQDCKFKHRLRLRFQVTQKTQRRWFLDKLVDEIGVGYVRDRGSVSDYQLSEIKPLHNFLTQLQPFLKLKQKQANLVLKIIWRLPSAKESPDKFLEVCTWVDQIAALNDSKTRKTTSETVRAVLDSLSEKKKSSPHHHHHH
ACH2
  cleavage of a linearized DNA substrate with the intended non-palindromic recognition sequence (SEQ ID NO: 23, human FGFR3 gene) by the 1:1 mixture: each rationally-designed meganuclease heterodimer cleaves its intended DNA site

B6: CF1 (protein)
chain: MNTKYNKEFLLYLAGFVDGDGSICAQIKPNQSYKFKHQLQLAFQVTQKTQRRWFLDKLVDEIGVGYVHDRGSVSDYILSEIKPLHNFLTQLQPFLKLKQKQANLVLKIIWRLPSAKESPDKFLEVCTWVDQIAALNDSKTRKTTSETVRAVLDSLSEKKKSSPHHHHHH
CF2
  cleavage of a linearized DNA substrate with the intended non-palindromic recognition sequence (SEQ ID NO: 25, human CFTR deltaF508 allele) by the 1:1 mixture: each rationally-designed meganuclease heterodimer cleaves its intended DNA site

B7: URA1 (protein)
chain: MNTKYNKEFLLYLAGFVDGDGSIIAQIKPNQSCKFKHQLRLAFTVTQKTQRRWFLDKLVDEIGVGYVRDRGSVSDYILSEIKPLHNFLTQLQPFLKLKQKQANLVLKIIWRLPSAKESPDKFLEVCTWVDQIAALNDSKTRKTTSETVRAVLDSLSEKKKSSPHHHHHH
URA2
  cleavage of a linearized DNA substrate with the intended non-palindromic recognition sequence (SEQ ID NO: 36, Saccharomyces cerevisiae URA3 gene) by the 1:1 mixture: each rationally-designed meganuclease heterodimer cleaves its intended DNA site

B8: MYD1 (protein)
chain: MNTKYNKEFLLYLAGFVDGDGSIIAQIRPRQSYKFKHELELAFQVTQKTQRRWFLDKLVDEIGVGKVRDRGSVSDYELSEIKPLHNFLTQLQPFLKLKQKQANLVLKIIWRLPSAKESPDKFLEVCTWVDQIAALNDSKTRKTTSETVRAVLDSLSEKKKSSPHHHHHH
MYD2
  cleavage of a linearized DNA substrate with the intended non-palindromic recognition sequence (SEQ ID NO: 27, human DM kinase gene) by the 1:1 mixture: each rationally-designed meganuclease heterodimer cleaves its intended DNA site

B9: CYP (protein)
chain: MNTKYNKEFLLYLAGFVDGDGSIIAAIKPNQDYKFKHQLRLAFQVTQKTQRRWFLDKLVDEIGVGYVYDRGSVSDYQLSEIKPLHNFLTQLQPFLKLKQKQANLVLKIIWRLPSAKESPDKFLEVCTWVDQIAALNDSKTRKTTSETVRAVLDSLSEKKKSSPHHHHHH
[2]
  cleavage of a linearized DNA substrate with the intended non-palindromic recognition sequence (SEQ ID NO: 35, Nicotiana tabacum CYP82E4 gene) by the 1:1 mixture: each rationally-designed meganuclease heterodimer cleaves its intended DNA site

B10: MGC1 (protein)
chain: MNTKYNKEFLLYLAGFVDGDGSIKAQIKPNQCYKFKHQLQLAFQVTQKTQRRWFLDKLVDEIGVGYVYDRGSVSDYILSEIKPLHNFLTQLQPFLKLKQKQANLVLKIIWRLPSAKESPDKFLEVCTWVDQIAALNDSKTRKTTSETVRAVLDSLSEKKKSSPHHHHHH
MGC2
  cleavage of a linearized DNA substrate with the intended non-palindromic recognition sequence (SEQ ID NO: 34, Nicotiana tabacum Magnesium Chelatase gene) by the 1:1 mixture: each rationally-designed meganuclease heterodimer cleaves its intended DNA site

B11: LAM1 (protein)
chain: MNTKYNKEFLLYLAGFVDGDGSIIAQIDPRQCRKFKHELRLRFQVTQKTQRRWFLDKLVDEIGVGYVRDRGSVSDYILSEIKPLHNFLTQLQPFLKLKQKQANLVLKIIWRLPSAKESPDKFLEVCTWVDQIAALNDSKTRKTTSETVRAVLDSLSEKKKSSPHHHHHH
LAM2
  cleavage of the non-palindromic LAM1/LAM2 hybrid DNA site (SEQ ID NO: 22) by enzymes co-expressed from an operon in E. coli: The co-expressed enzyme mixture was found to cleave all three sites, including the LAM1/LAM2 hybrid site
  cleavage of the non-palindromic LAM1/LAM2 hybrid DNA site (SEQ ID NO: 22) by purified enzymes mixed 1:1 and incubated at 42 C for 20 minutes: The 1:1 mixture of LAM1 and LAM2, however, cleaves all three DNA sites

B12: BRP1 (protein)
chain: MNTKYNKEFLLYLAGFVDGDGSIKAQIRPRQCRKFKHELELAFQVTQKTQRRWFLDKLVDEIGVGKVYDRGSVSDYELSEIKPLHNFLTQLQPFLKLKQKQANLVLKIIWRLPSAKESPDKFLEVCTWVDQIAALNDSKTRKTTSETVRAVLDSLSEKKKSSPHHHHHH
BRP2
  cleavage of a linearized DNA substrate with the intended non-palindromic recognition sequence (SEQ ID NO: 33, Arabidopsis BP1 gene) by the 1:1 mixture: each rationally-designed meganuclease heterodimer cleaves its intended DNA site
